Where no end group is shown, it is not given here. MBP = not defined here

The values that follow come from US20070122429A1, “Designed antigens to elicit neutralizing antibodies against sterically restricted antigen and method of using same” (priority 2005, published 2007).

One test addresses T1, HXB2 Env (Human immunodeficiency virus type 1 group M subtype B, UniProt P04578).
T1 construct: expressed in transfected cells; host or cells: Chinese hamster ovary cells expressing HXB2 Env, mixed with HeLa-CD4-LTR-β-galactosidase cells
It counts as cell-based, HIV-1. Conditions: range over cell-cell fusion and viral infectivity assays.

Another test has as its system IZN36-MBP. The test can be described thus: co-precipitation with biotinylated IZN36-MBP on streptavidin beads. It counts as binding. Conditions: SDS-PAGE. Here is the method: This mixture is then added to magnetic streptavidin beads (Dynal), which bind to the biotinylated IZN36-MBP.

Description for HXB2 Env: Cell-cell fusion was monitored. HXB2 Env-expressing Chinese hamster ovary cells were mixed with HeLa-CD4-LTR-β-galactosidase cells in the presence of inhibitors for 20 h at 37° C. Syncytia were stained with 5-bromo-4-chloro-3-indolyl-β-D-galactopyranoside (X-gal) and counted.
Viral infectivity was measured by the following method: pseudotyped viruses were produced by co-transfecting 293T cells using FuGENE (Roche Applied Science) with pNL4-3.Luc.R-E- and either pEBB-HXB2 or pEBB-JRFL. After 36-48 h, viral supernatants were collected and sterile filtered. HXB2 or JRFL pseudotyped virus was added to HOS-CD4-fusin or HOS-CD4-CCR5 cells, respectively, in the presence of inhibitors. HXB2 assays included 20 μg/ml DEAE-dextran. After 12 h, virus and inhibitor were removed and replaced with fresh media. Cells were lysed 40-44 h after infection using Glo lysis buffer (Promega), and luciferase activity was measured using Bright-Glo (Promega). IC50 values for both assays were calculated by fitting data to the equation, y=k/(1+[inhibitor]/IC50), where y is the normalized number of syncytia or luciferase activity and k is the scaling constant.

Take “MBP-C37: Escherichia coli maltose-binding protein fused by Ser5Gly2 linker to C37 ({MBP}-SSSSSGGHTTWMEWDREINNYTSLIHSLIEESQNQQEKNEQELLHHHHHH; reading uncertain; also: fused to maltose-binding protein (not in chain))”: the “reduction in potency relative to C37” value with HXB2 Env is recorded as 75-228 fold. Further, the “binding to IZN36-MBP” value with IZN36-MBP is recorded as “reduced binding”.
